From US12247072 (ASHER BIOTHERAPEUTICS, dated 2025)

The binders below were run against Recombinant human IL-21R, extracellular domain fused to 8x Histidine tag (generated in house) (human, UniProt Q9HBE5 20-232) (assay: SPR, 37 C).
Recombinant human IL-21R, extracellular domain fused to 8x Histidine tag (generated in house), sequence (Q9HBE5 other isoform, or with tags, fused parts or gaps limits assumed): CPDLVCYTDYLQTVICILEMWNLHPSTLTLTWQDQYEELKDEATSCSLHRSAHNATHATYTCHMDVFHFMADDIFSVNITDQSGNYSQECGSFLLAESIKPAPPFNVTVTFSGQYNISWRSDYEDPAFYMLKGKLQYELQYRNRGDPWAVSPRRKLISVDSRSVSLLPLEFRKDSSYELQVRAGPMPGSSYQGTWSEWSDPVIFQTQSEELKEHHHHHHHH
Description: Protein was not captured on flow cell 1 to serve as a reference surface. A serial dilution was generated for human IL-21R, in HBS-P+ buffer supplemented with 1 g/L BSA, starting at nominal concentrations between 20-5 µM, followed by six to seven 5-fold serial dilutions, and flowed over the surface-captured fusion protein for 2 minutes at 30 µL/min. Buffer was also flowed over the surface to serve as a blank subtraction. Dissociation was monitored for 5-10 minutes, and the anti-hIgG-Fc surface was regenerated with three 30 to 60-seconds injections of 75 mM phosphoric acid before recapturing fusion protein in each subsequent binding cycle. Binding data were double-referenced and analyzed by Biacore® Evaluation Software version 3.2 using steady-state affinity for very weak interactions, or when possible, a 1:1 Langmuir with mass transport model to determine kinetic rate constants (k_a, k_d) and K_D.

Binder | Kd [nM] | binding result
xhCD8.1-hIL21 v2.7 (other, Human IgG1/kappa, knob-into-hole, L234A/L235A/G237A) VH: QVQLVQSGAEVKKPGSSVKVSCKASGGTFSSYAISWVRQAPGQGLEWMGGIIPGYATANYAQKFQGRVTITADESTSTAYMELSSLRSEDTAVYYCARDAAGIRLFADWGQGTLVTVSS VL: DIQMTQSPSSLSASVGDRVTITCRASQSIYGALNWYQQKPGKAPKLLIYGASNLQSGVPSRFSGSGSGTDFTLTISSLQPEDFATYYCQSTYTAPWTFGGGTKVEIK not shown | 156 | 
xhCD8.1-hIL21 v2.32 (other, Human IgG1/kappa, knob-into-hole, L234A/L235A/G237A) VH: QVQLVQSGAEVKKPGSSVKVSCKASGGTFSSYAISWVRQAPGQGLEWMGGIIPGYATANYAQKFQGRVTITADESTSTAYMELSSLRSEDTAVYYCARDAAGIRLFADWGQGTLVTVSS VL: DIQMTQSPSSLSASVGDRVTITCRASQSIYGALNWYQQKPGKAPKLLIYGASNLQSGVPSRFSGSGSGTDFTLTISSLQPEDFATYYCQSTYTAPWTFGGGTKVEIK not shown | 0.236 | 
xhCD8.1-hIL21 v2.9 (other, Human IgG1/kappa, knob-into-hole, L234A/L235A/G237A) VH: QVQLVQSGAEVKKPGSSVKVSCKASGGTFSSYAISWVRQAPGQGLEWMGGIIPGYATANYAQKFQGRVTITADESTSTAYMELSSLRSEDTAVYYCARDAAGIRLFADWGQGTLVTVSS VL: DIQMTQSPSSLSASVGDRVTITCRASQSIYGALNWYQQKPGKAPKLLIYGASNLQSGVPSRFSGSGSGTDFTLTISSLQPEDFATYYCQSTYTAPWTFGGGTKVEIK not shown | 420 | 
xhCD8.1-hIL21 v2.34 (other, Human IgG1/kappa, knob-into-hole, L234A/L235A/G237A) VH: QVQLVQSGAEVKKPGSSVKVSCKASGGTFSSYAISWVRQAPGQGLEWMGGIIPGYATANYAQKFQGRVTITADESTSTAYMELSSLRSEDTAVYYCARDAAGIRLFADWGQGTLVTVSS VL: DIQMTQSPSSLSASVGDRVTITCRASQSIYGALNWYQQKPGKAPKLLIYGASNLQSGVPSRFSGSGSGTDFTLTISSLQPEDFATYYCQSTYTAPWTFGGGTKVEIK not shown | 2 | 
xhCD8.1-hIL21 v2.30 (other, Human IgG1/kappa, knob-into-hole, L234A/L235A/G237A) VH: QVQLVQSGAEVKKPGSSVKVSCKASGGTFSSYAISWVRQAPGQGLEWMGGIIPGYATANYAQKFQGRVTITADESTSTAYMELSSLRSEDTAVYYCARDAAGIRLFADWGQGTLVTVSS VL: DIQMTQSPSSLSASVGDRVTITCRASQSIYGALNWYQQKPGKAPKLLIYGASNLQSGVPSRFSGSGSGTDFTLTISSLQPEDFATYYCQSTYTAPWTFGGGTKVEIK not shown | 0.419 | 
xhCD8.1-hIL21 v2.42 (other, Human IgG1/kappa, knob-into-hole, L234A/L235A/G237A) VH: QVQLVQSGAEVKKPGSSVKVSCKASGGTFSSYAISWVRQAPGQGLEWMGGIIPGYATANYAQKFQGRVTITADESTSTAYMELSSLRSEDTAVYYCARDAAGIRLFADWGQGTLVTVSS VL: DIQMTQSPSSLSASVGDRVTITCRASQSIYGALNWYQQKPGKAPKLLIYGASNLQSGVPSRFSGSGSGTDFTLTISSLQPEDFATYYCQSTYTAPWTFGGGTKVEIK not shown |  | no binding (tested: highest concentration tested)
xhCD8.1-hIL21 v2.29 (other, Human IgG1/kappa, knob-into-hole, L234A/L235A/G237A) VH: QVQLVQSGAEVKKPGSSVKVSCKASGGTFSSYAISWVRQAPGQGLEWMGGIIPGYATANYAQKFQGRVTITADESTSTAYMELSSLRSEDTAVYYCARDAAGIRLFADWGQGTLVTVSS VL: DIQMTQSPSSLSASVGDRVTITCRASQSIYGALNWYQQKPGKAPKLLIYGASNLQSGVPSRFSGSGSGTDFTLTISSLQPEDFATYYCQSTYTAPWTFGGGTKVEIK not shown | 2.8 | 
xhCD8.1-hIL21 v2.46 (other, Human IgG1/kappa, knob-into-hole, L234A/L235A/G237A) VH: QVQLVQSGAEVKKPGSSVKVSCKASGGTFSSYAISWVRQAPGQGLEWMGGIIPGYATANYAQKFQGRVTITADESTSTAYMELSSLRSEDTAVYYCARDAAGIRLFADWGQGTLVTVSS VL: DIQMTQSPSSLSASVGDRVTITCRASQSIYGALNWYQQKPGKAPKLLIYGASNLQSGVPSRFSGSGSGTDFTLTISSLQPEDFATYYCQSTYTAPWTFGGGTKVEIK not shown |  | no binding (tested: highest concentration tested)
xhCD8.1-hIL21 v2.43 (other, Human IgG1/kappa, knob-into-hole, L234A/L235A/G237A) VH: QVQLVQSGAEVKKPGSSVKVSCKASGGTFSSYAISWVRQAPGQGLEWMGGIIPGYATANYAQKFQGRVTITADESTSTAYMELSSLRSEDTAVYYCARDAAGIRLFADWGQGTLVTVSS VL: DIQMTQSPSSLSASVGDRVTITCRASQSIYGALNWYQQKPGKAPKLLIYGASNLQSGVPSRFSGSGSGTDFTLTISSLQPEDFATYYCQSTYTAPWTFGGGTKVEIK not shown |  | no binding (tested: highest concentration tested)
xhCD8.1-hIL21 v2.33 (other, Human IgG1/kappa, knob-into-hole, L234A/L235A/G237A) VH: QVQLVQSGAEVKKPGSSVKVSCKASGGTFSSYAISWVRQAPGQGLEWMGGIIPGYATANYAQKFQGRVTITADESTSTAYMELSSLRSEDTAVYYCARDAAGIRLFADWGQGTLVTVSS VL: DIQMTQSPSSLSASVGDRVTITCRASQSIYGALNWYQQKPGKAPKLLIYGASNLQSGVPSRFSGSGSGTDFTLTISSLQPEDFATYYCQSTYTAPWTFGGGTKVEIK not shown | 1.3 | 
xhCD8.1-hIL21 v2.20 (other, Human IgG1/kappa, knob-into-hole, L234A/L235A/G237A) VH: QVQLVQSGAEVKKPGSSVKVSCKASGGTFSSYAISWVRQAPGQGLEWMGGIIPGYATANYAQKFQGRVTITADESTSTAYMELSSLRSEDTAVYYCARDAAGIRLFADWGQGTLVTVSS VL: DIQMTQSPSSLSASVGDRVTITCRASQSIYGALNWYQQKPGKAPKLLIYGASNLQSGVPSRFSGSGSGTDFTLTISSLQPEDFATYYCQSTYTAPWTFGGGTKVEIK not shown |  | no binding (tested: highest concentration tested)
xhCD8.1-hIL21 v2.31 (other, Human IgG1/kappa, knob-into-hole, L234A/L235A/G237A) VH: QVQLVQSGAEVKKPGSSVKVSCKASGGTFSSYAISWVRQAPGQGLEWMGGIIPGYATANYAQKFQGRVTITADESTSTAYMELSSLRSEDTAVYYCARDAAGIRLFADWGQGTLVTVSS VL: DIQMTQSPSSLSASVGDRVTITCRASQSIYGALNWYQQKPGKAPKLLIYGASNLQSGVPSRFSGSGSGTDFTLTISSLQPEDFATYYCQSTYTAPWTFGGGTKVEIK not shown | 3.4 | 
xhCD8.1-hIL21 v2.45 (other, Human IgG1/kappa, knob-into-hole, L234A/L235A/G237A) VH: QVQLVQSGAEVKKPGSSVKVSCKASGGTFSSYAISWVRQAPGQGLEWMGGIIPGYATANYAQKFQGRVTITADESTSTAYMELSSLRSEDTAVYYCARDAAGIRLFADWGQGTLVTVSS VL: DIQMTQSPSSLSASVGDRVTITCRASQSIYGALNWYQQKPGKAPKLLIYGASNLQSGVPSRFSGSGSGTDFTLTISSLQPEDFATYYCQSTYTAPWTFGGGTKVEIK not shown |  | no binding (tested: highest concentration tested)
xhCD8.1-hIL21 v2.28 (other, Human IgG1/kappa, knob-into-hole, L234A/L235A/G237A) VH: QVQLVQSGAEVKKPGSSVKVSCKASGGTFSSYAISWVRQAPGQGLEWMGGIIPGYATANYAQKFQGRVTITADESTSTAYMELSSLRSEDTAVYYCARDAAGIRLFADWGQGTLVTVSS VL: DIQMTQSPSSLSASVGDRVTITCRASQSIYGALNWYQQKPGKAPKLLIYGASNLQSGVPSRFSGSGSGTDFTLTISSLQPEDFATYYCQSTYTAPWTFGGGTKVEIK not shown | 0.693 | 

Now from value to binder, other results behind:

Kd [nM] | Binder | binding result
104 | xhCD8.1-hIL21 v2.41 (other, Human IgG1/kappa, knob-into-hole, L234A/L235A/G237A) VH: QVQLVQSGAEVKKPGSSVKVSCKASGGTFSSYAISWVRQAPGQGLEWMGGIIPGYATANYAQKFQGRVTITADESTSTAYMELSSLRSEDTAVYYCARDAAGIRLFADWGQGTLVTVSS VL: DIQMTQSPSSLSASVGDRVTITCRASQSIYGALNWYQQKPGKAPKLLIYGASNLQSGVPSRFSGSGSGTDFTLTISSLQPEDFATYYCQSTYTAPWTFGGGTKVEIK not shown | 
66.9 | xhCD8.1-hIL21 v2.38 (other, Human IgG1/kappa, knob-into-hole, L234A/L235A/G237A) VH: QVQLVQSGAEVKKPGSSVKVSCKASGGTFSSYAISWVRQAPGQGLEWMGGIIPGYATANYAQKFQGRVTITADESTSTAYMELSSLRSEDTAVYYCARDAAGIRLFADWGQGTLVTVSS VL: DIQMTQSPSSLSASVGDRVTITCRASQSIYGALNWYQQKPGKAPKLLIYGASNLQSGVPSRFSGSGSGTDFTLTISSLQPEDFATYYCQSTYTAPWTFGGGTKVEIK not shown | 
601 | xhCD8.1-hIL21 v2.37 (other, Human IgG1/kappa, knob-into-hole, L234A/L235A/G237A) VH: QVQLVQSGAEVKKPGSSVKVSCKASGGTFSSYAISWVRQAPGQGLEWMGGIIPGYATANYAQKFQGRVTITADESTSTAYMELSSLRSEDTAVYYCARDAAGIRLFADWGQGTLVTVSS VL: DIQMTQSPSSLSASVGDRVTITCRASQSIYGALNWYQQKPGKAPKLLIYGASNLQSGVPSRFSGSGSGTDFTLTISSLQPEDFATYYCQSTYTAPWTFGGGTKVEIK not shown | 
420 | xhCD8.1-hIL21 v2.58 (other, Human IgG1/kappa, knob-into-hole, L234A/L235A/G237A) VH: QVQLVQSGAEVKKPGSSVKVSCKASGGTFSSYAISWVRQAPGQGLEWMGGIIPGYATANYAQKFQGRVTITADESTSTAYMELSSLRSEDTAVYYCARDAAGIRLFADWGQGTLVTVSS VL: DIQMTQSPSSLSASVGDRVTITCRASQSIYGALNWYQQKPGKAPKLLIYGASNLQSGVPSRFSGSGSGTDFTLTISSLQPEDFATYYCQSTYTAPWTFGGGTKVEIK not shown | 
125 | xhCD8.1-hIL21 v2.36 (other, Human IgG1/kappa, knob-into-hole, L234A/L235A/G237A) VH: QVQLVQSGAEVKKPGSSVKVSCKASGGTFSSYAISWVRQAPGQGLEWMGGIIPGYATANYAQKFQGRVTITADESTSTAYMELSSLRSEDTAVYYCARDAAGIRLFADWGQGTLVTVSS VL: DIQMTQSPSSLSASVGDRVTITCRASQSIYGALNWYQQKPGKAPKLLIYGASNLQSGVPSRFSGSGSGTDFTLTISSLQPEDFATYYCQSTYTAPWTFGGGTKVEIK not shown | 
614 | xhCD8.1-hIL21 v2.39 (other, Human IgG1/kappa, knob-into-hole, L234A/L235A/G237A) VH: QVQLVQSGAEVKKPGSSVKVSCKASGGTFSSYAISWVRQAPGQGLEWMGGIIPGYATANYAQKFQGRVTITADESTSTAYMELSSLRSEDTAVYYCARDAAGIRLFADWGQGTLVTVSS VL: DIQMTQSPSSLSASVGDRVTITCRASQSIYGALNWYQQKPGKAPKLLIYGASNLQSGVPSRFSGSGSGTDFTLTISSLQPEDFATYYCQSTYTAPWTFGGGTKVEIK not shown | 
54.7 | xhCD8.1-hIL21 v2.40 (other, Human IgG1/kappa, knob-into-hole, L234A/L235A/G237A) VH: QVQLVQSGAEVKKPGSSVKVSCKASGGTFSSYAISWVRQAPGQGLEWMGGIIPGYATANYAQKFQGRVTITADESTSTAYMELSSLRSEDTAVYYCARDAAGIRLFADWGQGTLVTVSS VL: DIQMTQSPSSLSASVGDRVTITCRASQSIYGALNWYQQKPGKAPKLLIYGASNLQSGVPSRFSGSGSGTDFTLTISSLQPEDFATYYCQSTYTAPWTFGGGTKVEIK not shown | 
